Experimental data: patent US6670167

B1: Full Length Chk1 (amino acids 1-476 of SEQ ID NO. 2), preparation HA2-013 (protein)
chain: MAVPFVEDWDLVGTLGEGAYGEVQLAVNRVTEEAVAVKIVDMKRAVDCPENIKKEICINKMLNHENVVKFYGHRREGNIQYLFLEYCSGGELFDRIEPDIGMPEPDAQRFFHQLMAGVVYLHGIGITHRDIKPENLLLDERDNLKISDFGLATVFRYNNRERLLNKMCGTLPYVAPELLKRREFHAEPVDVWSCGIVLTAMLAGELPWDQPSDSCQEYSDWKEKKTYLNPWKKIDSAPLALLHKILVENPSARITIPDIKKDRWYNKPLKKGAKRPRVTSGGVSESPSGFSKHIQSNLDFSPVNSASSEENVKYSSSQPEPRTGLSLWDTSPSYIDKLVQGISFSQPTCPDHMLLNSGLLGTPGSSQNPWQRLVKRMTRFFTKLDADKSYQCLKETCEKLQYQWKKSCMNQVTISTTDRRNNKLIFKVNLLEMDDKILVDFRLSKGDGLEFKRHFLKIKGKLIDIVSSQKVWLPATHHHHHH
B2: Kinase Domain Chk1 (1-289), C-terminally 6xHis-tagged (protein)
chain: MAVPFVEDWDLVGTLGEGAYGEVQLAVNRVTEEAVAVKIVDMKRAVDCPENIKKEICINKMLNHENVVKFYGHRREGNIQYLFLEYCSGGELFDRIEPDIGMPEPDAQRFFHQLMAGVVYLHGIGITHRDIKPENLLLDERDNLKISDFGLATVFRYNNRERLLNKMCGTLPYVAPELLKRREFHAEPVDVWSCGIVLTAMLAGELPWDQPSDSCQEYSDWKEKKTYLNPWKKIDSAPLALLHKILVENPSARITIPDIKKDRWYNKPLKKGAKRPRVTSGGVSESPSGHHHHHH

How the values were obtained:
[1] = molecular target: T1, Syntide-2, synthetic substrate peptide PLARTLSVAGLPGKK
T1 chain: PLARTLSVAGLPGKK

[2] = molecular target: T2, N-terminus acetylated Syntide-2
T2 chain: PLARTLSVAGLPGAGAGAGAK

[3] = molecular target: T3, Biotin-Syntide-2
T3 chain: KAGAGPLARTLSVAGLPGK

Protein	Activity [1]	Rate/min (/min (at 75 nM enzyme)) [1]	Rate/min (/min (at 7.3 nM enzyme)) [1]	Activity [2] [%]	Activity [3] [%]
B1	1 (control)	0.019			
B2			0.02	72	67
